Experimental data taken from article PMC13120683.
Values joined by “and” are separate entries in the source; they are usually repeats but may differ in a detail not shown here. Equal entries are not always repeated.

Assays:
[1] = biological target: MyoF-Tail (coiled-coil region, linker and WD40 domain, a.a. 987–1953, C-terminal biotin–FLAG tag) (T. gondii); assay: SEC; analytical; 0.25 mg/ml MyoF-Tail on Superdex 10/300 GL; 10 mM imidazole pH 7.4, 300 mM NaCl, 1 mM EGTA, 1 mM DTT; standards ferritin 440 kDa and thyroglobulin 660 kDa
[2] = biological target: MyoF-Motor (MyoF lacking its WD40 tail domain, a.a. 1–1265, C-terminal biotin–FLAG tag), heavy chain (T. gondii)
[3] = biological target: MyoF-Motor (MyoF lacking its WD40 tail domain, a.a. 1–1265, C-terminal biotin–FLAG tag), heavy chain (T. gondii); assay: thermal denaturation (calmodulin-binding) assay
[4] = biological target: full-length MyoF with a C-terminal biotin–FLAG tag, heavy chain (T. gondii); assay: negative-stain electron microscopy; negatively stained images of purified myosin constructs with co-purified light chain
[5] = biological target: MyoF-Motor (MyoF lacking its WD40 tail domain, a.a. 1–1265, C-terminal biotin–FLAG tag), heavy chain (T. gondii); assay: as above
[6] = biological target: Toxoplasma gondii actin (TgAct1) filaments (T. gondii) (UniProt P53476); assay: single-molecule motility assay (fluorescence microscopy); full-length MyoF mixed 1:5 with Alexa Fluor 647–streptavidin; TgAct1 filaments (jasplakinolide-stabilised or unstabilised) or skeletal actin-fascin bundles (phalloidin or jasplakinolide) held on the flow cell; 2 mM MgATP; 37°C
[7] = biological target: Toxoplasma gondii actin (TgAct1) filaments (T. gondii) (UniProt P53476)

MyoF-Tail (coiled-coil region, linker and WD40 domain, a.a. 987–1953, C-terminal biotin–FLAG tag) (domain or fragment)
stoichiometry N [1]: > 6

TgCam (calmodulin), untagged, co-expressed in Sf9 cells (natural protein)
in vitro gliding filament motility speed of MyoF-Motor bound to only TgCam (skeletal actin) [2]: 1.2 µm/s
stoichiometry N (calmodulin light chains per heavy chain) [3]: 3

full-length MyoF with a C-terminal biotin–FLAG tag, heavy chain (natural protein)
stoichiometry N [4]: 3 heads and 6 heads

MyoF-Motor (MyoF lacking its WD40 tail domain, a.a. 1–1265, C-terminal biotin–FLAG tag), heavy chain (domain or fragment)
stoichiometry N [5]: 2

full-length MyoF co-purified with TgCam (complex)
pause time at filament ends [6]: 1.5 s
run length (λ) of single full-length MyoF complexes on jasplakinolide-stabilized TgAct1 filaments [7]: 1.14 µm
velocity of single full-length MyoF complexes on jasplakinolide-stabilized TgAct1 filaments [7]: 1.5 µm/s
